Changes are numbered by the printed parent chain. Numbers in names are those of the source. Read-outs that look alike come from different tables or passages of the source. Ends that are not written are not given here.

First the molecules themselves.
B1: Human TBK1 (1–657, S172A) (domain or fragment)
chain: MQSTSNHLWLLSDILGQGATANVFRGRHKKTGDLFAIKVFNNISFLRPVDVQMREFEVLKKLNHKNIVKLFAIEEETTTRHKVLIMEFCPCGSLYTVLEEPSNAYGLPESEFLIVLRDVVGGMNHLRENGIVHRDIKPGNIMRVIGEDGQSVYKLTDFGAARELEDDEQFVALYGTEEYLHPDMYERAVLRKDHQKKYGATVDLWSIGVTFYHAATGSLPFRPFEGPRRNKEVMYKIITGKPSGAISGVQKAENGPIDWSGDMPVSCSLSRGLQVLLTPVLANILEADQEKCWGFDQFFAETSDILHRMVIHVFSLQQMTAHKIYIHSYNTATIFHELVYKQTKIISSNQELIYEGRRLVLEPGRLAQHFPKTTEENPIFVVSREPLNTIGLIYEKISLPKVHPRYDLDGDASMAKAITGVVCYACRIASTLLLYQELMRKGIRWLIELIKDDYNETVHKKTEVVITLDFCIRNIEKTVKVYEKLMKINLEAAELGEISDIHTKLLRLSSSQGTIETSLQDIDSRLSPGGSLADAWAHQEGTHPKDRNVEKLQVLLNCMTEIYYQFKKDKAERRLAYNEEQIHKFDKQKLYYHATKAMTHFTDECVKKYEAFLNKSEEWIRKMLHLRKQLLSLTNQCFDIEEEVSKYQEYTNELQET
B2: hSTING (155–379), unphosphorylated (domain or fragment)
chain: VAHGLAWSYYIGYLRLILPELQARIRTYNQHYNNLLRGAVSQRLYILLPLDCGVPDNLSMADPNIRFLDKLPQQTGDHAGIKDRVYSNSIYELLENGQRAGTCVLEYATPLQTLFAMSQYSQAGFSREDRLEQAKLFCRTLEDILADAPESQNNCRLIAYQEPADDSSFSLSQEVLRHLRQEEKEEVTVGSLKTSAVPSTSTMSQEPELLISGMEKPLPLRTDFS
modifications: biotin on the Avi tag
B3: hSTING (155–379) L374A (domain or fragment)
chain: B2 chain with L220A
modifications: biotin on the Avi tag
B4: hSTING (155–379, T376E F378M S379W), biotin-Avi-His6-SUMO fusion (domain or fragment)
chain: B2 chain with T222E, F224M, S225W
modifications: biotin on the Avi tag
B5: hSTING (155–379, T376E) (domain or fragment)
chain: B2 chain with T222E
modifications: biotin on the Avi tag

Holding throughout (experiment): SPR
Test [1] concerns the target p-hSTING (155–379) (human) (UniProt Q86WV6).
Test [2] addresses B1.
The target in test [3] is T1, Mouse TBK1 (1–657, S172A) (mouse, UniProt Q9WUN2 1-657, S172A).
T1 sequence: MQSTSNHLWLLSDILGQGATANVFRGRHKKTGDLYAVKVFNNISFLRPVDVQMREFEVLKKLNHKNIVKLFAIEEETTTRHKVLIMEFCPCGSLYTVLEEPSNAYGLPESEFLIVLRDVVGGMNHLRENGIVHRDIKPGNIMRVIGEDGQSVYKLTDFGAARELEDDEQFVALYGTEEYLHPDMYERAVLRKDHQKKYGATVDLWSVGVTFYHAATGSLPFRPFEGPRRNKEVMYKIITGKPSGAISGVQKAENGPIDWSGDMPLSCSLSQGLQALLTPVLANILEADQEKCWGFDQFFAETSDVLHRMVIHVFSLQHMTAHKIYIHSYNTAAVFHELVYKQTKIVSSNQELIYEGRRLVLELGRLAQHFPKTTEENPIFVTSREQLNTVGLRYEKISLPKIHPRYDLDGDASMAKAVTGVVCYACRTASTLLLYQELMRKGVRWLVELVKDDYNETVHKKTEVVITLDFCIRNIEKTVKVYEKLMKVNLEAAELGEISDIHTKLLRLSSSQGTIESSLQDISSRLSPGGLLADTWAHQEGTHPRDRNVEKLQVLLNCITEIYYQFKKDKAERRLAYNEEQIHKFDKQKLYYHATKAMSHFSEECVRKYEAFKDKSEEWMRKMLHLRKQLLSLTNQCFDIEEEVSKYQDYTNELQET

In test [4] the target is hSTING (155–379) L372A (human, UniProt Q86WV6 155-379, L372A, biotin on the Avi tag).
Test [5] concerns the target hSTING (155–379) P373A (human, UniProt Q86WV6 155-379, P373A, biotin on the Avi tag).
The target in test [6] is B1. This is another data set of the same source.
Test [7] concerns the target T1, Mouse TBK1 (1–657, S172A). This is another data set of the same source.
Test [8] concerns the target T2, human IRF-3 (residue 189–427) (human, UniProt Q14653 189-427).
T2 sequence: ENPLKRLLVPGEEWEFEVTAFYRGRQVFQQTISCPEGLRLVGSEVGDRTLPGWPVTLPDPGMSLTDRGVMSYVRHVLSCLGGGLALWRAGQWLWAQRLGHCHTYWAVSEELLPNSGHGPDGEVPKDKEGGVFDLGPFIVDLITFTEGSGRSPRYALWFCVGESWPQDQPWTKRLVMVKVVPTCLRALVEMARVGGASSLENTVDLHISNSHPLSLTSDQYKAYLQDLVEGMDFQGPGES

Consider “human TBK1 Q581A (from UniProt Q9UHD2 1-657) (domain or fragment)”, for which, in test [1], the fold reduction of the binding affinity against wild type TBK1 stood at 20 fold.

On to “human TBK1 K584A (from UniProt Q9UHD2 1-657) (domain or fragment)”, for which, in test [1], the fold reduction of the binding affinity against wild type TBK1 was determined as 20 fold. Consider STSTMSQEPELLISGMEKPLPLRTDFS [p-hSTING (353–379)], for which the values for the dissociation constant (Kd) in test [2] and in test [3] were 22.6 µM and 25.1 µM, respectively.

Turning to SGMEKPLPLRTDFS [p-hSTING (366–379)], the Kd worked out at 35.6 µM in test [2] and 30.8 µM in test [3]. For the molecule B1, the “fold reduction of the binding affinity against wild type STING” value in test [4] and in test [5] was roughly 10 fold each time. On to B2, for which the Kd in test [6] was roughly 230 µM; in test [7] it was roughly 260 µM; in test [2], roughly 290 µM; in test [3] it was roughly 170 µM. Regarding B3, in test [8], the binding result is given as “binds”.

With B4, the Kd in test [2] is 1.4 µM; in test [3], 1.2 µM.

In test [3], SGMEKPLPLREDWE (also: biotin on the Avi tag) [hSTING (366–379, T376E F378W S379E)] displayed a Kd of roughly 127 µM. For B5, the Kd in test [3] was roughly 62 µM. For SGMEKPLPLREDWM (also: biotin on the Avi tag) [hSTING (366–379, T376E F378W 3379M)], in test [3], the affinity, expressed as Kd, was 43.9 µM. This lies in the double-digit micromolar range. For the molecule SGMEKPLPLREDWI (also: biotin on the Avi tag) [hSTING (366–379, T376E F378W S379I)], the Kd in test [3] is roughly 59 µM. SGMEKPLPLREDWF (also: biotin on the Avi tag) [hSTING (366–379, T376E F378W S379F)] came in with a Kd in test [3] of 27.1 µM. This counts as double-digit micromolar. As to TWGSLKTSAVPSTSTMSQEPELLISGMEKPLPLRTDFS [p-hSTING (342–379)], the Kd in test [2] came to 16.8 µM; in test [3] it was 15.3 µM.

By Kd is commonly meant the equilibrium constant for the complex coming apart. Lower therefore signals tighter binding.

The values above are taken from article PMC6596994 (Nature, 2019).
